Results as given in PMC11699742.

Molecular target: α-Synuclein (UniProt P37840)

DnaK from E. coli, sequence (P0A6Y8 whole entry): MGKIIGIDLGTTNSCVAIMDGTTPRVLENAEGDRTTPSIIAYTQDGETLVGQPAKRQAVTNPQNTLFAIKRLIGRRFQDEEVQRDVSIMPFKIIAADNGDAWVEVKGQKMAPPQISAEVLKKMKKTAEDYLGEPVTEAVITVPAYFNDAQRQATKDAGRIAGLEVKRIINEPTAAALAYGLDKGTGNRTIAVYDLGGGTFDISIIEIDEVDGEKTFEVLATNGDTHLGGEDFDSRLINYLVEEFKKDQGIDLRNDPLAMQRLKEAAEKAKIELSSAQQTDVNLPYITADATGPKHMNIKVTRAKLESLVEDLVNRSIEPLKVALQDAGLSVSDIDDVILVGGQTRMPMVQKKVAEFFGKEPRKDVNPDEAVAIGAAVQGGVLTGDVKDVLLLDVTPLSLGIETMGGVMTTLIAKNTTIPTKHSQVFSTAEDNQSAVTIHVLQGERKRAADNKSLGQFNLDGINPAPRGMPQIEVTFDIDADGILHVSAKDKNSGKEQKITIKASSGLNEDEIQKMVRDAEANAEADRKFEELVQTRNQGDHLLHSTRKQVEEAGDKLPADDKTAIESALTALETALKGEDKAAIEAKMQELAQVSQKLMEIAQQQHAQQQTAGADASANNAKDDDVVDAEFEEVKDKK

## DnaK from E. coli (from UniProt P0A6Y8 1-638) (natural protein)
  ThT fibrillation of 50 µM α-Syn monomer with 0.5 µM DnaK, with 2 mM ATP: relative decrease in vmax (1.32 h^-1 to 0.49 h^-1) and end signal (176,900–53,000): 64%
  ThT fibrillation of 50 µM α-Syn monomer with 0.5 µM DnaK, without ATP: relative decrease in vmax (0.99 h^-1 to 0.55 h^-1) and end signal (43,000-24,600): 45%
